Measured values: US20240158515A1 (Regeneron, published 2024)

T1: human FGFR3b expressed with a C-terminal myc-myc-hexahistidine tag (hFGFR3b.mmH) (human)
T1 construct: also called REGN3152; monomeric human FGFR3b
T1 chain: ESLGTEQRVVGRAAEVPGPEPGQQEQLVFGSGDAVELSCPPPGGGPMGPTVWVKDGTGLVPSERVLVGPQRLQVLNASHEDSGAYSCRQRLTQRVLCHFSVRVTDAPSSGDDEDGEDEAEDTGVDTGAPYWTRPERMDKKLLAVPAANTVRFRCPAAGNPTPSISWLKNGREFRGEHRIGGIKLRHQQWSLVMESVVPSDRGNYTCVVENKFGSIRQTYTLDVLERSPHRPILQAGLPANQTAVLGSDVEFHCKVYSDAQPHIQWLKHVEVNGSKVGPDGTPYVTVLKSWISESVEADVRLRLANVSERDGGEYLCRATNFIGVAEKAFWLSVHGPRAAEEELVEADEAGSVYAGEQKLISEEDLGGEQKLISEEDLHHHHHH

T2: cynomolgus FGFR3b expressed with a C-terminal myc-myc-hexahistidine tag (mfFGFR3b.mmH) (cynomolgus)
T2 construct: also called REGN3521; mf FGFR3b ecto (R357G)(E23-G377;R357G).mmH
T2 chain: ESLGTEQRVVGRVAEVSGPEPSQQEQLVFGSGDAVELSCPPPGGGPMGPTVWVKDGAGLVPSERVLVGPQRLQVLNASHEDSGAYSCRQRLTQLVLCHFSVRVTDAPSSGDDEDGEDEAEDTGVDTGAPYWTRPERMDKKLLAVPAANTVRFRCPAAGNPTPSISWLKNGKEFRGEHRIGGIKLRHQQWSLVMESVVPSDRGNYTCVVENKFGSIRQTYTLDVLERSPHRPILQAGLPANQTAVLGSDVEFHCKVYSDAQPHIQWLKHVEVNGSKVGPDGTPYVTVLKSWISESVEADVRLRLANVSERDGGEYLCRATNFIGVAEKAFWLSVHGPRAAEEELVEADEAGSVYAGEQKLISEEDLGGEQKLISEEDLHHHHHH

T3: human FGFR3b expressed with a C-terminal murine Fc tag (hFGFR3b.mFc) (human)
T3 construct: called dimeric; also called REGN3153; dimeric human FGFR3b
T3 chain: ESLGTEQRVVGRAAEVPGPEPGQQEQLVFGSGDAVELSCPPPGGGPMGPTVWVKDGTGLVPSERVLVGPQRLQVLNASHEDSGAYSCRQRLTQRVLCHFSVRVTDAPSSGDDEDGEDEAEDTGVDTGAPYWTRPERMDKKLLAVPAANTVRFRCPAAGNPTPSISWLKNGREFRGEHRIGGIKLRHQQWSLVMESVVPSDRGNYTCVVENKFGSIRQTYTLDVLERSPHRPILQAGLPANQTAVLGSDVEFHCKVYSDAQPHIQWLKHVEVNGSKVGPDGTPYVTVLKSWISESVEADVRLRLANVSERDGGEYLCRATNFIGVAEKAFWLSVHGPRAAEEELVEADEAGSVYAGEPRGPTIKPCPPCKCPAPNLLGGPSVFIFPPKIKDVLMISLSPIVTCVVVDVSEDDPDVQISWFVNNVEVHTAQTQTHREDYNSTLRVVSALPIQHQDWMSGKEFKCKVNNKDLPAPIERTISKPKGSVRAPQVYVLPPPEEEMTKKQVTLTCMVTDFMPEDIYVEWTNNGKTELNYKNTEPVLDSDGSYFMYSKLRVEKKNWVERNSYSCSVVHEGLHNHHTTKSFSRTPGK

T4: murine FGFR3b expressed with a C-terminal myc-myc-hexahistidine tag (mFGFR3b.mmH) (murine)
T4 construct: also called REGN3215; monomeric murine FGFR3b
T4 chain: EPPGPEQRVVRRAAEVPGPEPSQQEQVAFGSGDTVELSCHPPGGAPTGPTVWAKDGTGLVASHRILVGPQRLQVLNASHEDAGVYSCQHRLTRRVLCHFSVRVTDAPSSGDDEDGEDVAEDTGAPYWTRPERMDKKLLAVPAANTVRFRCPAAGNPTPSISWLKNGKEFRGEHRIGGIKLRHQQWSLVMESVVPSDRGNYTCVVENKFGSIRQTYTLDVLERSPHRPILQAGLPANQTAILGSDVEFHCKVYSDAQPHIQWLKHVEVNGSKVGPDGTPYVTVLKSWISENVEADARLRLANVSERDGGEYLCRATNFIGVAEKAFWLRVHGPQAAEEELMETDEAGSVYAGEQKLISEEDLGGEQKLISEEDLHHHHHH


Tests used:
[1] = target: T1, human FGFR3b expressed with a …; experiment: SPR Biacore, mAb captured on anti-hFc, 25C
Experimental: (§1) The CM5 Biacore sensor surface was derivatized by amine coupling with a monoclonal mouse anti-human Fc monoclonal antibody (REGN2567). […] Antibody-reagent association was monitored for 5 minutes while dissociation in HBS-EP running buffer was monitored for 10 minutes. At the end of each cycle, the anti-FGFR3 antibody capture surface was regenerated using a 10 sec injection of 20 mM phosphoric acid. All binding kinetics experiments were performed at 25° C.
(§2) The specific SPR-Biacore sensorgrams were obtained by a double referencing procedure. The double referencing was performed by first subtracting the signal of each injection over a reference surface (anti-hFc) from the signal over the experimental surface (anti-hFc-captured anti-FGFR3 antibodies) thereby removing contributions from refractive index changes. In addition, running buffer injections were performed to allow subtraction of the signal changes resulting from the dissociation of captured antibodies from the coupled anti-hFc surface. Kinetic association (kₐ) and dissociation (kd) rate constants were determined by fitting the real-time sensorgrams to a 1:1 binding model using Scrubber v2.0c curve fitting software.

[2] = target: T2, cynomolgus FGFR3b expressed with a …; experiment: SPR Biacore, mAb captured on anti-hFc, 25C
Experimental: as §1, §2

[3] = target: T5, human FGFR3c expressed with a C-terminal myc-myc-hexahistidine tag (hFGFR3c.mmH) (human, UniProt P22607 23-375); experiment: SPR Biacore, mAb captured on anti-hFc, 25C
T5 construct: also called REGN3155; monomeric human FGFR3c
Experimental: as §1, §2

[4] = target: T3, human FGFR3b expressed with a …; experiment: SPR Biacore, mAb captured on anti-hFc, 25C
Experimental: as §1, §2

[5] = target: T4, murine FGFR3b expressed with a …; experiment: SPR Biacore, mAb captured on anti-hFc, 25C
Experimental: as §1, §2

[6] = target: T5, human FGFR3c expressed with a …; experiment: SPR Biacore, mAb captured on anti-hFc, 25C; row marked NB
Experimental: as §1, §2

[7] = target: T3, human FGFR3b expressed with a …; experiment: competition ELISA: 4 nM hFGFR3b-mFc binding to plate-coated hFGF acidic
Experimental: The fixed concentration of hFGFR3b or hFGFR3c proteins was selected to be near the concentration that generated 50% of the maximal binding (EC₅₀ value) to plate-adhered hFGF acidic or hFGF basic protein. […] The plates were then developed using TMB substrate solution (BD Biosciences) according to the manufacturer's recommended procedure and absorbance at 450 nm was measured on a Victor X5 plate reader.
Binding data were analyzed using a sigmoidal (four-parameter logistic) dose-response model using GraphPad Prism software. […] Percent blocking of FGFR3 antibody at a given concentration was calculated based on the formula shown below.
The ability of anti-FGFR3 antibodies to block human FGFR3b binding to hFGF acidic protein or hFGFR3c binding to hFGF acidic or hFGF basic proteins was evaluated using a sandwich ELISA-based blocking assay.

| Binder | 90 nM hFGFR3b.mmH Bind (RU) [1] [RU] | Kd [1] [nM] | koff [1] [s⁻¹] | kon [1] [M⁻¹ s⁻¹] | t½ [1] [min] | 90 nM mfFGFR3b.mmH Bind (RU) [2] [RU] | Kd [2] [nM] | koff [2] [s⁻¹] | kon [2] [M⁻¹ s⁻¹] | t½ [2] [min] | 90 nM hFGFR3c.mmH Bind (RU) [3] [RU] | 30 nM hFGFR3b.mFc Bind (RU) [4] [RU] | Kd [4] [nM] | koff [4] [s⁻¹] | kon [4] [M⁻¹ s⁻¹] | t½ [4] [min] | 90 nM mFGFR3b.mmH Bind (RU) [5] [RU] | koff [5] [s⁻¹] | kon [5] [M⁻¹ s⁻¹] | t½ [5] [min] | other results |
| --- | --- | --- | --- | --- | --- | --- | --- | --- | --- | --- | --- | --- | --- | --- | --- | --- | --- | --- | --- | --- | --- |
| H4H30095P2 (antibody, human IgG4 S228P, kappa, V domains shown) VH: QVQLVQSGVEVKKPGASVKVSCKASGYTFKFYGISWVRQAPGQGLEWMGWISVYNGKTKYAQKLQGRVTMTTDTSTSTAYMELRSLRSDDTAVYFCARDGDYESSGYPFDYWGQGTLVTVSS VL: not shown | 239 | 7.16 | 0.005 | 698000 | 2.3 | 206 | 8.29 | 0.00437 | 527000 | 2.6 | 222 | 405 | 0.114 | 9.88e-05 | 867000 | 117 | – | – | – | – | Kd [3]: 7.88 nM; koff [3]: 0.00454 s⁻¹; kon [3]: 575000 M⁻¹ s⁻¹; t½ [3]: 2.5 min |
| H4H30105P2 (antibody, human IgG4 S228P, kappa, V domains shown) VH: EVQLVQSGAEVKKPGESLKISCKGSGYSFTSYWIAWVRQMPGKGLEWMGIIYPGDSDTRYSPSFQGQVTMSADKSIRIAYLQWSSLKASDTAMYYCARLDYSGSWFDYWGQGTLVTVSS VL: not shown | 158 | – | 0.00511 | 438000 | 2.3 | 67.8 | 14.7 | 0.00802 | 547000 | 1.4 | 131 | – | – | – | – | – | 8.3 | 0.00122 | 149000 | 9.5 | koff [3]: 0.00652 s⁻¹; kon [3]: 387000 M⁻¹ s⁻¹; t½ [3]: 1.8 min |
| H4H30089P2 (antibody, human IgG4 S228P, kappa, V domains shown, HCVR 62, LCVR 70) VH: EVQLVESGGGLVQPGGSLRLSCIVSGFIFSSYEMSWLRQAPGKGLEWISYISSSGRVIYYADSVKGRFTISRDSAKNSLYLEMNSLRAEDTAIYYCTRKWDSSGPFDFWGQGTLVTVSS VL: not shown | 152 | 10.2 | 0.00282 | 276000 | 4.1 | 147 | 10.3 | 0.00221 | 216000 | 5.2 | – | 214 | 0.061 | 1.9e-05 | 312000 | 608 | 60 | 0.00238 | 281000 | 4.9 | Kd [5]: 8.45 nM; 90 nM hFGFR3c.mmH Bind (RU) [6]: -6.7 RU; % Blocking at 200 nM mAb [7]: 68%; IC50 [7]: 15 nM |
| H4H30093P2 (antibody, human IgG4 S228P, kappa, V domains shown, HCVR 82, LCVR 90) VH: QVQLVESGGGLVKPGGSLRLSCAASGFTFNDYPMSWIRQAPGKGLEWVSYITSSSGSTIYYADSVKGRFTISRDNAKNSLYLQMNSLRAEDTAVYYCAREVVVATIGGYYGMDVWGQGTTVTVSS VL: not shown | 217 | 5.14 | 0.00209 | 406000 | 5.5 | – | – | – | – | – | 182 | 317 | 0.0265 | 1.55e-05 | 585000 | 745 | 11.2 | 0.00967 | 136000 | 1.2 | binding result [2]: no binding (tested: 90 nM); Kd [5]: 70.9 nM; Kd [3]: 9.2 nM; koff [3]: 0.00334 s⁻¹; kon [3]: 363000 M⁻¹ s⁻¹; t½ [3]: 3.5 min; % Blocking at 200 nM mAb [7]: 91%; IC50 [7]: 2.5 nM |
| H4H30108P2 (antibody, human IgG4 S228P, kappa, V domains shown) VH: QVQLVQSGAEVKKPGASVKVSCKASGYTFNSYDVNWVRQATGQGLEWMGWMNPHSGNTGYAQKFQGRVTMTRDTSTSTSYMELSSLTSEDTAVYYCARGPFSLLSAEFFQHWGQGTLVTVSS VL: not shown | 227 | – | 0.000159 | 176000 | 72.6 | 212 | 0.909 | 0.000136 | 149000 | 85.2 | – | 213 | – | ≤ 1e-05 | 311000 | ≥ 1160 | 121 | 0.00199 | 162000 | 5.8 | 90 nM hFGFR3c.mmH Bind (RU) [6]: -2.5 RU |
| H4H30076P (antibody, human IgG4 S228P, kappa, V domains shown) VH: EVQLVESGGGLVQPGGSLRLSCAASGFTVSSNYMSWVRQAPGKGLEWVSIIYSGGHTYYSDSVKGRFTISRHNSKNTLYLQMNSLRGGDTAVYYCARGYTSGWYGFDFWGQGTLVTVSS VL: DIQMTQSPSSVSASVGDRVTITCRASQGISTWLAWYQQKPGKAPKLLIYAASSLQSGVPSRFSGTGSGTDFTLTISSLQPEDFATYYCQQTNSFPWTFGQGTKVEIKR | 198 | 0.186 | 4.39e-05 | 236000 | 263 | 180 | 0.165 | 3.3e-05 | 200000 | 350 | – | 204 | ≤ 0.0246 | ≤ 1e-05 | 407000 | ≥ 1160 | 201 | 3.61e-05 | 256000 | 320 | Kd [5]: 0.141 nM; 90 nM hFGFR3c.mmH Bind (RU) [6]: -9.7 RU |
